Measurements reported in patent publication US20220127332A1 (CURA THERAPEUTICS, published 2022).

Legend:
active TGFβ1 [1] = biological target: T1, active TGFβ1 (human, UniProt P01137 279-390); assay: cell-based or functional assay
T1 construct: mature; also called TGFb1; human active TGFβ1

active TGFβ3 = active TGFβ3 (UniProt P10600); assay: blocking of active TGFβ3 (1 ng/mL) in solution, 30 min in PBS; free TGFβ3 by ELISA
active TGFβ1 [2] = biological target: T1, active TGFβ1; assay: blocking of active TGFβ1 (1 ng/mL) in solution, 30 min in PBS; free TGFβ1 by ELISA

T1 sequence (P01137 279-390 limits assumed): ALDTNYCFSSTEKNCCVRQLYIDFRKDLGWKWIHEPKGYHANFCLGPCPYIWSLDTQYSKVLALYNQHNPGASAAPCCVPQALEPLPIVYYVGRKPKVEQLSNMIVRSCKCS
active TGFβ3, sequence (P10600 301-412): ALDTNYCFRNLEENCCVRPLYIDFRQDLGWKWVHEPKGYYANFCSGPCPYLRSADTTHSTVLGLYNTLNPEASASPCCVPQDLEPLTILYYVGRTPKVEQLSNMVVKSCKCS

Molecule: FIST (monovalent FIST; fusion protein of an IL-2 polypeptide and a single sTBRII receptor polypeptide)
- IC50 values for the inhibition of TGFb1-dependent suppression of CTLL-2 cell proliferation (active TGFβ1 [1]): 0.12
- IC50 (active TGFβ3): 3.6 nM
- IC50 (active TGFβ1 [2]): 1.29 nM

B1: sTBRII isoform 2 (long) (receptor, UniProt P37173-2 23-191, looked up)
chain: TIPPHVQKSDVEMEAQKDEIICPSCNRTAHPLRHINNDMIVTDNNGAVKFPQLCKFCDVRFSTCDNQKSCMSNCSITSICEKPQEVCVAVWRKNDENITLETVCHDPKLPYHDFILEDAASPKCIMKEKKKPGETFFMCSCSSDECNDNIIFSEEYNTSNPDLLLVIFQ
notes: also called TbRII (isoform II); TβRII isoform 2
- IC50 (active TGFβ1 [2]): 0.02 nM
